Results published in paper doi:10.1101/2025.02.17.637997, “Phosphorylation-State Modulated Binding of HSP70: Structural Insights and Compensatory Protein Engineering” (bioRxiv, 2025).
“Also recorded” adds a separate entry of the source. Each block holds one molecule with its values, some of them ahead of it. Square brackets hold non-standard residues; d marks the D form. Ends that are not written are not given here. * marks the point of attachment. FITC = O=C1OC2(c3ccc(O)cc3Oc3cc(O)ccc32)c2ccc(NC(=S)*)cc21; Biotin = O=C1N[C@H]2[C@H](CS[C@H]2CCCCC(=O)*)N1; pT = C[C@@H](OP(=O)(O)O)[C@H](N)C(=O)O; Ahx = NCCCCCC(=O)O

Columns and labels:
[1] = test system: HSP70 steady-state levels in HEK-293 cells; experiment: Cycloheximide chase of HSP70 steady-state levels, HEK-293; assay type: cell-based; settings: Flag immunoblot, representative, Fig. S1
Description: (§1) HEK293 and COS-7 cells were acquired from the UNC Lineberger Comprehensive Cancer Center Tissue Culture Facility. Cultures were maintained in Dulbecco’s Modified Eagle Medium with 10% fetal bovine serum at 37 °C and 5% CO2. Using the manufacturers’ instructions, X-tremeGENE 9 was used to transfect cells with plasmid DNA except for NanoBiT constructs, in which case we used Lipofectamine 3000 (Thermo Fisher Scientific). Where indicated, twenty-four hours post-transfection, cells were treated with 20 μM MG-132 (Selleck Chemicals) for 6 h or 100 μM cycloheximide (Sigma-Aldrich) for the stated duration.
(§2) Samples were collected in a lysis buffer composed of 50 mM Tris-HCl (pH 7.4), 150 mM NaCl, 2 mM EDTA, and 1% Triton X-100, supplemented with 1X Halt protease and phosphatase inhibitor (Thermo Scientific). The samples were then sonicated and combined with Laemmli sample buffer (Bio-Rad). The lysates were resolved on 4–15% TGX Stain-Free gels (Bio-Rad) and transferred to PVDF membranes (Bio-Rad). The membranes were blocked in 5% milk and incubated with primary antibodies (Table S3) overnight at 4°C. Following this, HRP-conjugated secondary antibodies (Cell Signaling Technology) were applied. Detection was performed using Lumigen ECL Ultra (Lumigen, tma-100), and the blots were imaged with the ChemiDoc Imaging System (BioRad).

[2] = biological target: T1, CHIP-TPR N65S (UniProt Q9UNE7 21-154, N65S); experiment: BLI; BLItz, biotin peptides loaded on streptavidin sensors, TPR protein constructs at 1 to 25 μM; 20 mM HEPES, 150 mM NaCl, 5 mM β-mercaptoethanol, pH 7.2; Kd=koff/kon; settings: both partners purified
T1 construct: CHIP, extended TPR domain, residues 21-154, with N65S; control of the BLI experiment; also called CHIP-N65S
T1 sequence (looked up): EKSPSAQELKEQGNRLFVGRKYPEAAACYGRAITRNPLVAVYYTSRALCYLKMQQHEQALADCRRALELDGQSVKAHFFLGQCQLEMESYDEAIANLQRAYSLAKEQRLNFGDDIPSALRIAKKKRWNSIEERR

[3] = biological target: T2, CHIP-TPR G132S (UniProt Q9UNE7 21-154, G132S); experiment: as above; settings: both partners purified
T2 construct: CHIP, extended TPR domain, residues 21-154, with G132S; site modification control of the BLI experiment; also called CHIP-G132S
T2 sequence (looked up): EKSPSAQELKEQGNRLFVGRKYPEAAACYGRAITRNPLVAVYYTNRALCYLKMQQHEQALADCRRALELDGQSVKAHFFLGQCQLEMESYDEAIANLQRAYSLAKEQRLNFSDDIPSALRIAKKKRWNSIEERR

[4] = biological target: T3, CHIP-TPR (21–154) (UniProt Q9UNE7 21-154); experiment: crystal structure; CHIP-TPR co-crystallised with peptide at a 3:1 peptide:protein ratio, sitting drop vapor diffusion at room temperature; 0.2 M lithium sulfate, 0.1 M Tris-HCl, pH 8.5, 30% PEG 4000; settings: both partners purified
T3 construct: also called extended TPR domain of CHIP
T3 sequence (looked up): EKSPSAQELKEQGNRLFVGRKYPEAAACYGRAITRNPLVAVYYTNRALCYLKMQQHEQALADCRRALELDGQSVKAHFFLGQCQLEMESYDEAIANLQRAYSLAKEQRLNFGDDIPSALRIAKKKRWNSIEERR

[5] = biological target: T4, CHIP-G132N (Homo sapiens, UniProt Q9UNE7, G132N); experiment: Biolayer interferometry, CHIP-G132N TPR; assay type: binding; settings: BLI; CHIP-G132N TPR; Fig. 2E
T4 construct: Recombinant CHIP-TPR constructs were recombinantly expressed using the pHis//2 CHIP-TPR (21–154) plasmid; His; made in house
T4 sequence (Q9UNE7 21-154 G132N): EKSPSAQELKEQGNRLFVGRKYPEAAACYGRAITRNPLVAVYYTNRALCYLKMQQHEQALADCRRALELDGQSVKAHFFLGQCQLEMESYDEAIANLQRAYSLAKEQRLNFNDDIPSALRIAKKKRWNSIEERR
Description: Bio-layer interferometry measured peptide binding using a BLItz instrument (FortéBio, Sartorius) with streptavidin (SA) sensors. Biotin-EEVD and biotin-pEEVD were solubilized in 20 mM HEPES, 150 mM NaCl, pH 7.0. Affinity measurements were made using the advanced kinetic protocol within the BLItz Pro system software. Biosensors were hydrated for ten minutes in assay buffer comprising 20 mM HEPES, 150 mM NaCl, 5 mM β-mercaptoethanol, pH 7.2. For each affinity measurement, a new, hydrated biosensor was placed on the BLItz tip, and the “Initial Baseline” step was completed by incubation for 30 seconds in 500 μl assay buffer in an opaque black microcentrifuge tube (Argos Technologies). Peptides were loaded during the “Loading Step” by incubating the tip in 4 μl of either peptide for 60 seconds. The “Baseline step” was then conducted by incubation for 30 seconds in 500 μl assay buffer in an opaque black microcentrifuge tube. The “Association step” was performed by incubating the tip in 4 μl of the appropriate TPR protein construct, at protein concentrations of 1 to 25 μM, in assay buffer in an opaque black microcentrifuge tube for 120 seconds. […] Affinities (Kd) were calculated by the BLItz Pro software as Kd=koff/kon, where koff and kon were determined by individual fits to the “dissociation step” and “association step,” respectively, for each run.

[6] = test system: LgBiT-HSP70 T636A/D; experiment: NanoBiT live-cell interaction, HEK-293, CHIP variants with LgBiT-HSP70; assay type: cell-based; settings: compared with CHIP-WT, Fig. 1E
Description: as §1
NanoBiT Protein: Protein Interaction System (Promega) was used to measure protein-protein interaction data following the manufacturer’s instructions. As previously described, LgBiT-HSP70 and SmBiT-CHIP construct interactions were used as positive controls ([22]). Twenty-four hours post-transfection, the cells were collected, replated in 96-well clear bottom white-sided tissue culture plates, and maintained at 37 °C and 5% CO2 for 45 min. Nano-Glo Live Cell Reagent (Promega) was added, and luminescence was measured using a CLARIOstar microplate reader over 20 minutes. The total area under the maximum luminescence curve was quantified and used to compare changes in HSP70-CHIP interactions relative to the WT-WT conditions.

[7] = test system: HSP70; experiment: Co-immunoprecipitation of CHIP variants with HSP70, COS-7; assay type: cell-based; settings: Co-IP of MYC-CHIP, Fig. 1I
Description: as §2
Ezview™ Red Anti-c-Myc Affinity Gel Beads (Sigma-Aldrich) were used for co-immunoprecipitation of myc-tagged proteins. Proteins were eluted via boiling before western blot analysis.

[8] = test system: HSC70; experiment: Cell-free ubiquitination of HSC70 by CHIP; assay type: biochemical, human; settings: 100 nM Uba1, 1 μM UBE2D2, 200 nM Hsc70, 100 μM Ub, 1 μM CHIP, pH 8.0, 15 min, room temperature; three experiments; p = 0.0774; Fig. 1K
Description: Ubiquitination assays were conducted using recombinant human HSC70, fluorescently tagged on its N-terminus. All assay components except ubiquitin were premixed on ice in a BSA-containing buffer (20 mM HEPES, pH 8.0; 200 mM NaCl; 0.5 mg/mL BSA). Reactions were initiated by adding ubiquitin and were allowed to proceed at room temperature unless specified otherwise. The reactions contained a final concentration of 100 nM Uba1, 1 μM UBE2D2, 200 nM Hsc70, 100 μM Ub, 5 mM MgCl2-ATP, and 1 μM CHIP. The reactions proceeded for 15 minutes before being quenched with SDS loading buffer. The quenched samples were separated by molecular weight via SDS-PAGE in non-reducing conditions using GenScript SurePAGE 4–12% gels. The CHIP-dependent ubiquitination of Hsc70 was visualized and quantified through fluorescent scanning on an Amersham Typhoon 5.

[9] = biological target: T5, recombinant full-length CHIP-WT (UniProt Q9UNE7 1-303); experiment: FP
T5 chain: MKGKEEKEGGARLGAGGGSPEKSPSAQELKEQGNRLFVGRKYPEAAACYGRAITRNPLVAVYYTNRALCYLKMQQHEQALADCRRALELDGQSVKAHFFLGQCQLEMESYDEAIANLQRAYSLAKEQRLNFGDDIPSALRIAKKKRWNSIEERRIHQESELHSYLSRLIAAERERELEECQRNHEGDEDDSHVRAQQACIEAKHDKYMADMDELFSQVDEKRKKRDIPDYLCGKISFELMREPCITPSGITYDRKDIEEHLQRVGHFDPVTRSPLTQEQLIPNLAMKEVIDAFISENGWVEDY

[10] = biological target: recombinant full-length CHIP-G132N (UniProt Q9UNE7 1-303, G132N); experiment: FP
[11] = biological target: T6, recombinant full-length CHIP-WT (UniProt Q9UNE7 1-303); experiment: fluorescence polarisation; 20 nM N-terminally FITC-labelled peptide, recombinant CHIP constructs at increasing concentrations, 30 minutes at room temperature; one site/total binding fit with Bmax constrained to 100; settings: both partners purified
T6 sequence (looked up): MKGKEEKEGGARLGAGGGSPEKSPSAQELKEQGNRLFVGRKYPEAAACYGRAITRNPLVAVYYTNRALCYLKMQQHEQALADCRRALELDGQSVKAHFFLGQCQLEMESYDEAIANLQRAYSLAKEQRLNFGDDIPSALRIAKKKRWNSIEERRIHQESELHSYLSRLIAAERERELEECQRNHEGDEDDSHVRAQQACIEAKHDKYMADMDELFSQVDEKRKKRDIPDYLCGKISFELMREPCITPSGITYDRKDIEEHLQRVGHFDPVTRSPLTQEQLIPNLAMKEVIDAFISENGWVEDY

[12] = biological target: T7, recombinant full-length CHIP-G132N (UniProt Q9UNE7 1-303, G132N); experiment: as above; settings: both partners purified
T7 construct: CHIP, full-length recombinant protein with G132N
T7 sequence (looked up): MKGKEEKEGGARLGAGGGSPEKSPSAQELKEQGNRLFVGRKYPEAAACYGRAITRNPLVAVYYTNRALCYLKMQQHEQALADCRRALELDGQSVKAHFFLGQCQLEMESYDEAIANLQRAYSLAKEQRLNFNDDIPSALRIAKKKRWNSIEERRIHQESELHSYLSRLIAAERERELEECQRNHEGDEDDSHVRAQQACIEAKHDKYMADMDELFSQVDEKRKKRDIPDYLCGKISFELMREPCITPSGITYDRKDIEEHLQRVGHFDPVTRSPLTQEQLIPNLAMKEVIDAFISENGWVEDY

[13] = biological target: T3, CHIP-TPR (21–154); experiment: as above; settings: both partners purified

Molecule: HSP70-T636A: phospho-null version of HSP70
- percent change of HSP70 level from time 0 ([1]; cycloheximide +MG132, 6 h (column from layout)): +31%
- percent change of HSP70 level from time 0 ([1]; cycloheximide, 6 h, without MG132 (column from layout)): -84%

B1: amino-terminal biotin-labeled HSP70 tail peptide biotin-GSGSGPTIEEVD (peptide)
peptide: Biotin-GSGSGPTIEEVD
notes: C-terminal tail of HSP70; loaded on streptavidin sensors for BLI; also called biotin-EEVD; source: synthetic peptide, bought: Lifetein
- binding result [2]: binds
- binding result [3]: binds

B2: phosphorylated HSP(C)70 peptide GP(pT)IEEVD (peptide)
peptide: GP[pT]IEEVD
notes: used for co-crystallisation with CHIP-TPR; also called pEEVD; pT-HSP70 peptide; source: synthetic peptide (Lifetein or Genscript)
- binding result [4]: binds

B5: CHIP-G132N: engineered CHIP variant to restore binding affinity to phosphorylated HSP70 (protein)
chain: MKGKEEKEGGARLGAGGGSPEKSPSAQELKEQGNRLFVGRKYPEAAACYGRAITRNPLVAVYYTNRALCYLKMQQHEQALADCRRALELDGQSVKAHFFLGQCQLEMESYDEAIANLQRAYSLAKEQRLNFNDDIPSALRIAKKKRWNSIEERRIHQESELHSYLSRLIAAERERELEECQRNHEGDEDDSHVRAQQACIEAKHDKYMADMDELFSQVDEKRKKRDIPDYLCGKISFELMREPCITPSGITYDRKDIEEHLQRVGHFDPVTRSPLTQEQLIPNLAMKEVIDAFISENGWVEDY
- effect on binding affinity towards phosphorylated EEVD tail [5]: rescued the binding affinity
- luminescence of CHIP variant with HSP70-T636A/D [6]: lower luminescence
- co-precipitation of HSP70 by CHIP variant [7]: did not override the effect of the HSP70-T636D phosphomimetic
- ubiquitination of HSC70 [8]: not different; also recorded: trend towards decreased ligase activity

B6: CHIP-WT: wild-type CHIP, E3 ligase co-chaperone (protein)
chain: MKGKEEKEGGARLGAGGGSPEKSPSAQELKEQGNRLFVGRKYPEAAACYGRAITRNPLVAVYYTNRALCYLKMQQHEQALADCRRALELDGQSVKAHFFLGQCQLEMESYDEAIANLQRAYSLAKEQRLNFGDDIPSALRIAKKKRWNSIEERRIHQESELHSYLSRLIAAERERELEECQRNHEGDEDDSHVRAQQACIEAKHDKYMADMDELFSQVDEKRKKRDIPDYLCGKISFELMREPCITPSGITYDRKDIEEHLQRVGHFDPVTRSPLTQEQLIPNLAMKEVIDAFISENGWVEDY
- ubiquitination of HSC70 [8]: not different

Other lines, results leading:

- binding result [4]: binds
B3: unphosphorylated HSP(C)70 peptide GPTIEEVD (peptide)
peptide: GPTIEEVD
notes: C-terminal tail of HSP70 (T636 is the third residue); used for co-crystallisation with CHIP-TPR; also called HSP70 peptide; HSP70 tail; source: synthetic peptide (Lifetein or Genscript)

- binding result [2]: binds
- binding result [3]: binds
B4: amino-terminal biotin-labeled pT-HSP70 tail peptide biotin-GSGSGP(pT)IEEVD (peptide)
peptide: Biotin-GSGSGP[pT]IEEVD
notes: loaded on streptavidin sensors for BLI; also called biotin-pEEVD; pEEVD; source: synthetic peptide, bought: Lifetein

- Kd [9]: 46 µM
- Kd [10]: 96 µM
- binding result [11]: binds
- binding result [12]: binds
- binding result [13]: binds
B7: N-FITC-Ahx-GSGP(pT)IEEVD (peptide)
peptide: {FITC-Ahx}-GSGP[pT]IEEVD
notes: tracer of the fluorescence polarisation assay; also called pEEVD; phosphorylated EEVD peptide; source: synthetic peptide (Lifetein or Genscript)
